# Laboratory results published in the supplement of paper PMC9732359.
# ± gives the uncertainty stated by the source.
# Experiment: protein stability index of a GFP-peptide fusion (yeast GPS) (PSI 1-4); higher = more stable; sorted into four equal gates, so the index is relative within each strain
# Summary of the method: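 For each peptide, the protein stability index sums the read frequency in every gate after multiplying it by the gate number. Read frequencies came from plasmids that were PCR-amplified from each gate and Illumina-sequenced, with reads assigned to strains by barcodes. The gates were four equal bins of GFP/Cherry fluorescence ratio applied to mid-log yeast in leucine-free medium carrying a pooled library of tiled 17-residue yeast protein peptides fused downstream of GFP on a Cherry-expressing plasmid.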
sequence,measurement,setting,value
RPNLPTHNFKLSGVSNS [RGR1],protein stability index,doa10∆,1.72 ± 0.13
same,protein stability index,pdr5∆,1.49 ± 0.062
same,protein stability index,san1∆,1.85 ± 0.088
same,protein stability index,ubr1∆,2.12 ± 0.054
VILRKISMLVTQLQRGG [CSI1],protein stability index,doa10∆,1.31 ± 0.059
same,protein stability index,pdr5∆,1.57 ± 0.056
same,protein stability index,san1∆,1.55 ± 0.098
same,protein stability index,ubr1∆,1.3 ± 0.045
VLYYRDARSSRNFSLAI [PRE4],protein stability index,doa10∆,2.85 ± 0.14
same,protein stability index,pdr5∆,2.63 ± 0.12
same,protein stability index,san1∆,1.99 ± 0.15
same,protein stability index,ubr1∆,2.39 ± 0.085
EGTPINNVYFAAGALFV [RPN14],protein stability index,doa10∆,2.2 ± 0.091
same,protein stability index,pdr5∆,2.63 ± 0.13
same,protein stability index,san1∆,2.72 ± 0.12
same,protein stability index,ubr1∆,2.45 ± 0.11
LHPYVPSSKPQEQVYPD [SRB8],protein stability index,doa10∆,2.81 ± 0.24
same,protein stability index,pdr5∆,2.92 ± 0.12
same,protein stability index,san1∆,3.08 ± 0.093
same,protein stability index,ubr1∆,3.25 ± 0.15
VTHMDQIFVRGSQIKFI [SMD3],protein stability index,doa10∆,2.55 ± 0.13
same,protein stability index,pdr5∆,2.67 ± 0.14
same,protein stability index,san1∆,2.17 ± 0.13
same,protein stability index,ubr1∆,2.04 ± 0.067
TEPDKPAFSFNSSVGNK [YJL041W/NSP1],protein stability index,doa10∆,3.14 ± 0.053
same,protein stability index,pdr5∆,3.3 ± 0.04
same,protein stability index,san1∆,3.09 ± 0.033
same,protein stability index,ubr1∆,3.242 ± 0.029
RPDGVHVINVGKTWEKL [RPS0A],protein stability index,doa10∆,3.33 ± 0.12
same,protein stability index,pdr5∆,3.41 ± 0.15
same,protein stability index,san1∆,3.4 ± 0.13
same,protein stability index,ubr1∆,3.04 ± 0.081
AQNVPMNIIQQQQQQNT [GAL11],protein stability index,doa10∆,2.48 ± 0.043
same,protein stability index,pdr5∆,2.6 ± 0.042
same,protein stability index,san1∆,2.45 ± 0.069
same,protein stability index,ubr1∆,2.46 ± 0.029
KDNAIYNGFIDIFSNLS [YCS4],protein stability index,doa10∆,2.85 ± 0.076
same,protein stability index,pdr5∆,2.72 ± 0.081
same,protein stability index,san1∆,2.87 ± 0.07
same,protein stability index,ubr1∆,2.77 ± 0.047
KHGTYDKLDDDGLIAPG [RPB2],protein stability index,doa10∆,3.02 ± 0.21
same,protein stability index,pdr5∆,2.92 ± 0.24
MLKQHLFKYQGHIGAYL [PUP1],protein stability index,doa10∆,2.17 ± 0.064
same,protein stability index,pdr5∆,2.34 ± 0.063
same,protein stability index,san1∆,2.25 ± 0.092
same,protein stability index,ubr1∆,2.25 ± 0.071
ISKHSKQAIYTRAAASE [RPS25B],protein stability index,doa10∆,2.74 ± 0.055
same,protein stability index,pdr5∆,2.73 ± 0.048
same,protein stability index,san1∆,2.6 ± 0.047
same,protein stability index,ubr1∆,2.86 ± 0.041
FAQENSELAVATTSVMM [SRB6],protein stability index,doa10∆,2.82 ± 0.13
same,protein stability index,pdr5∆,3.13 ± 0.14
same,protein stability index,san1∆,3.13 ± 0.07
same,protein stability index,ubr1∆,3.33 ± 0.11
DVKSSLSKVFSDVLFEF [YJL039C/NUP192],protein stability index,doa10∆,2.82 ± 0.12
same,protein stability index,pdr5∆,3.28 ± 0.071
same,protein stability index,san1∆,2.58 ± 0.1
same,protein stability index,ubr1∆,2.89 ± 0.053
LQRDLFIRLPHWPLNWY [RGR1],protein stability index,doa10∆,2.05 ± 0.095
same,protein stability index,pdr5∆,2.15 ± 0.061
same,protein stability index,san1∆,2.11 ± 0.082
same,protein stability index,ubr1∆,2.11 ± 0.076
NQGVNELKYQRSLRATA [RPL15A],protein stability index,doa10∆,1.33 ± 0.073
same,protein stability index,pdr5∆,1.42 ± 0.086
same,protein stability index,san1∆,1.61 ± 0.18
same,protein stability index,ubr1∆,1.11 ± 0.05
PGFDEFQLIDMKDKEIN [CSI1],protein stability index,doa10∆,3.34 ± 0.14
same,protein stability index,pdr5∆,3 ± 0.11
same,protein stability index,san1∆,3.41 ± 0.045
same,protein stability index,ubr1∆,3.45 ± 0.061
RNLNNLKQENAYLLIRR [RPB8],protein stability index,doa10∆,3.14 ± 0.072
same,protein stability index,pdr5∆,3.16 ± 0.084
same,protein stability index,san1∆,3.15 ± 0.071
same,protein stability index,ubr1∆,3 ± 0.054
RAGQRGYHSRTSINHKI [RPL3],protein stability index,doa10∆,2.85 ± 0.13
same,protein stability index,pdr5∆,3.23 ± 0.14
same,protein stability index,san1∆,3 ± 0.096
same,protein stability index,ubr1∆,3.5 ± 0.12
DSKLLPKNIEPPLTSQY [SWI3],protein stability index,doa10∆,2.89 ± 0.058
same,protein stability index,pdr5∆,2.91 ± 0.049
same,protein stability index,san1∆,2.92 ± 0.041
same,protein stability index,ubr1∆,2.92 ± 0.04
EDEEEFSIFNYFKMFPA [RPC34],protein stability index,doa10∆,3.27 ± 0.19
same,protein stability index,pdr5∆,2.2 ± 0.1
same,protein stability index,ubr1∆,2.46 ± 0.2
KNKENNTFTWNHSLQHQ [RPN4],protein stability index,doa10∆,2.37 ± 0.083
same,protein stability index,pdr5∆,2.34 ± 0.096
same,protein stability index,san1∆,2.25 ± 0.067
same,protein stability index,ubr1∆,1.95 ± 0.046
MKAVGEYMKRHPTTIES [SEC65],protein stability index,doa10∆,1.93 ± 0.17
same,protein stability index,pdr5∆,2.24 ± 0.23
same,protein stability index,san1∆,1.64 ± 0.3
LNAINNAEKTGKRQVLL [RPS22B],protein stability index,doa10∆,3.35 ± 0.066
same,protein stability index,pdr5∆,3.24 ± 0.078
same,protein stability index,san1∆,3.26 ± 0.072
same,protein stability index,ubr1∆,3.17 ± 0.05
NAQDIDHFLSMCQNPMQ [FAS1],protein stability index,doa10∆,3.51 ± 0.23
same,protein stability index,pdr5∆,2.84 ± 0.17
ISLSVHTLALEFVNGGK [RRP46],protein stability index,doa10∆,2.49 ± 0.1
same,protein stability index,pdr5∆,2.79 ± 0.068
same,protein stability index,san1∆,2.06 ± 0.08
same,protein stability index,ubr1∆,2.66 ± 0.079
EQHHINNLKNSGNSANN [GAL11],protein stability index,doa10∆,2.41 ± 0.14
same,protein stability index,pdr5∆,2.09 ± 0.088
same,protein stability index,san1∆,2.39 ± 0.1
same,protein stability index,ubr1∆,2.32 ± 0.13
IKKPKTYKYPSLKGVDP [RPL29],protein stability index,doa10∆,3.63 ± 0.29
same,protein stability index,pdr5∆,3.62 ± 0.2
PKYRDNLATWYHSAGGR [SSN3],protein stability index,doa10∆,2.95 ± 0.066
same,protein stability index,pdr5∆,3.28 ± 0.08
same,protein stability index,san1∆,3.1 ± 0.059
same,protein stability index,ubr1∆,2.99 ± 0.059
VTTCVYLACKVEECPQY [SSN8],protein stability index,doa10∆,1.93 ± 0.059
same,protein stability index,pdr5∆,2.05 ± 0.075
same,protein stability index,san1∆,2.58 ± 0.11
same,protein stability index,ubr1∆,1.96 ± 0.073
IITQYVFESLEINNLIQ [ARP9],protein stability index,doa10∆,3.2 ± 0.098
same,protein stability index,pdr5∆,2.93 ± 0.081
same,protein stability index,san1∆,2.8 ± 0.12
same,protein stability index,ubr1∆,2.96 ± 0.1
GKMNNEVSTSTSMTGDA [SWI3],protein stability index,doa10∆,3.49 ± 0.076
same,protein stability index,pdr5∆,3.3 ± 0.069
same,protein stability index,san1∆,3.2 ± 0.054
same,protein stability index,ubr1∆,3.15 ± 0.053
QFNATINPESREIVMPA [ITC1],protein stability index,doa10∆,1.87 ± 0.15
same,protein stability index,pdr5∆,1.86 ± 0.17
same,protein stability index,san1∆,1.7 ± 0.13
same,protein stability index,ubr1∆,1.14 ± 0.19
TLVNKSTGLKSASDALK [RPS1A],protein stability index,doa10∆,2.94 ± 0.11
same,protein stability index,pdr5∆,3.1 ± 0.11
same,protein stability index,san1∆,3.42 ± 0.092
same,protein stability index,ubr1∆,3.23 ± 0.074
AQYCYKNGLYQEAFKIY [SRP72],protein stability index,doa10∆,2.87 ± 0.075
same,protein stability index,pdr5∆,2.94 ± 0.097
same,protein stability index,san1∆,3.1 ± 0.069
same,protein stability index,ubr1∆,3.25 ± 0.059
DHLIIEPEEEKSKREEE [ARP9],protein stability index,doa10∆,3.15 ± 0.27
same,protein stability index,ubr1∆,3.2 ± 0.17
EFGTYGKYVIAGHVSGV [RPN14],protein stability index,doa10∆,1.57 ± 0.14
same,protein stability index,pdr5∆,1.57 ± 0.22
same,protein stability index,san1∆,1.25 ± 0.3
HINKIPSNSTTTLHGPG [SRB8],protein stability index,doa10∆,2.89 ± 0.059
same,protein stability index,pdr5∆,3.17 ± 0.059
same,protein stability index,san1∆,2.96 ± 0.052
same,protein stability index,ubr1∆,3.11 ± 0.039
VYESEMEQCKQRYQDLS [YIL149C/MLP2],protein stability index,doa10∆,3.27 ± 0.09
same,protein stability index,pdr5∆,3.36 ± 0.11
same,protein stability index,san1∆,3.03 ± 0.081
same,protein stability index,ubr1∆,3.24 ± 0.094
TEDILKEISTRVFNAKD [YCS4],protein stability index,doa10∆,3.11 ± 0.13
same,protein stability index,pdr5∆,3.17 ± 0.095
same,protein stability index,san1∆,3.25 ± 0.095
same,protein stability index,ubr1∆,3.29 ± 0.092
TLYIGNTANGRPPVKAI [ECM29],protein stability index,doa10∆,1.84 ± 0.17
same,protein stability index,pdr5∆,2 ± 0.094
same,protein stability index,san1∆,1.99 ± 0.11
same,protein stability index,ubr1∆,1.47 ± 0.11
VSKQLGNGLVDENKVEA [YAR002W/NUP60],protein stability index,doa10∆,3.17 ± 0.082
same,protein stability index,pdr5∆,3.02 ± 0.068
same,protein stability index,san1∆,3.38 ± 0.048
same,protein stability index,ubr1∆,3.21 ± 0.049
GRNRGRPNRRGPRNTEE [RPS2],protein stability index,doa10∆,3.38 ± 0.069
same,protein stability index,pdr5∆,3.24 ± 0.16
same,protein stability index,san1∆,3.58 ± 0.1
same,protein stability index,ubr1∆,3.45 ± 0.083
AVEQRKKEKLDSGEVDA [DPB4],protein stability index,doa10∆,3.2 ± 0.23
same,protein stability index,pdr5∆,3.21 ± 0.17
same,protein stability index,san1∆,3.36 ± 0.1
same,protein stability index,ubr1∆,3.27 ± 0.1
NVLFLRLFNNVKIHSQE [SRP72],protein stability index,doa10∆,2.18 ± 0.049
same,protein stability index,pdr5∆,2.06 ± 0.04
same,protein stability index,san1∆,1.66 ± 0.061
same,protein stability index,ubr1∆,2.08 ± 0.036
RVFRTRFQDGTSVVSIM [SMC2],protein stability index,doa10∆,2.07 ± 0.099
same,protein stability index,pdr5∆,1.3 ± 0.1
same,protein stability index,ubr1∆,2.31 ± 0.087
GSIQKGMPHKFYQGKTG [RPL21A],protein stability index,doa10∆,3.07 ± 0.14
same,protein stability index,pdr5∆,3.06 ± 0.16
same,protein stability index,san1∆,2.9 ± 0.21
same,protein stability index,ubr1∆,2.51 ± 0.28
LIFIACNDEDKDLETLY [ECM29],protein stability index,doa10∆,3.11 ± 0.084
same,protein stability index,pdr5∆,3.04 ± 0.067
same,protein stability index,san1∆,2.3 ± 0.089
same,protein stability index,ubr1∆,2.92 ± 0.035
DQLIISSSANKLLQLFL [YML103C/NUP188],protein stability index,doa10∆,1.91 ± 0.063
same,protein stability index,pdr5∆,2.17 ± 0.066
same,protein stability index,san1∆,1.89 ± 0.086
same,protein stability index,ubr1∆,2.54 ± 0.055
KQDCVDWFTYSYFYRRI [BRR2],protein stability index,doa10∆,1.69 ± 0.036
same,protein stability index,pdr5∆,1.32 ± 0.032
same,protein stability index,san1∆,1.51 ± 0.053
same,protein stability index,ubr1∆,1.41 ± 0.029
